We go through two molecules from article PMC6851316, “The C-terminal dimerization domain of the respiratory mucin MUC5B functions in mucin stability and intracellular packaging before secretion” (The Journal of Biological Chemistry, 2019).

Assay [1] addresses MUC5B C-terminal construct consisting of D4-B-C-CK (CT5B) (human) (UniProt Q9HC84). Description: SEC-MALS; recombinant CT5B on Superose 6 10/300 GL, 0.2 M NaCl, pH 7.4; step: monomer to disulfide-linked dimer. In general terms: In gel filtration, larger molecules generally elute earlier.
Assay [2] has the same target. In words: AUC; sedimentation velocity; CT5B with 5 mM CaCl2 overnight at 4 °C, 150 mM NaCl, 25 mM HEPES pH 7.4 or 25 mM MES pH 6 or pH 5; tests the step dimer to higher multimers.
Assay [3] shares this target. In words: SEC-MALS; CT5B incubated overnight at 4 °C in 5 mM CaCl2 or 5 mM EGTA, 150 mM NaCl, 25 mM HEPES pH 7.4 or 25 mM MES pH 6 or 5; Superose 6 10/300 GL at room temperature; tests the step dimer to higher multimers.
Assay [4] deals with T1, MUC5B C-terminal construct consisting of D4-B-C-CK (CT5B) (human, UniProt Q9HC84 4955-5762).
T1 construct: MUC5B, human, UniProtKB Q9HC84, D4-B-C-CK domains, residues 4955-5762; Mainly a disulfide-linked dimer with a small proportion of monomer; The dimer was used for cryo-EM, SPR (amine-coupled to a CM5 chip) and the homotypic tests; also called C-terminal dimerization domain of MUC5B; dimeric CT5B
T1 sequence (looked up): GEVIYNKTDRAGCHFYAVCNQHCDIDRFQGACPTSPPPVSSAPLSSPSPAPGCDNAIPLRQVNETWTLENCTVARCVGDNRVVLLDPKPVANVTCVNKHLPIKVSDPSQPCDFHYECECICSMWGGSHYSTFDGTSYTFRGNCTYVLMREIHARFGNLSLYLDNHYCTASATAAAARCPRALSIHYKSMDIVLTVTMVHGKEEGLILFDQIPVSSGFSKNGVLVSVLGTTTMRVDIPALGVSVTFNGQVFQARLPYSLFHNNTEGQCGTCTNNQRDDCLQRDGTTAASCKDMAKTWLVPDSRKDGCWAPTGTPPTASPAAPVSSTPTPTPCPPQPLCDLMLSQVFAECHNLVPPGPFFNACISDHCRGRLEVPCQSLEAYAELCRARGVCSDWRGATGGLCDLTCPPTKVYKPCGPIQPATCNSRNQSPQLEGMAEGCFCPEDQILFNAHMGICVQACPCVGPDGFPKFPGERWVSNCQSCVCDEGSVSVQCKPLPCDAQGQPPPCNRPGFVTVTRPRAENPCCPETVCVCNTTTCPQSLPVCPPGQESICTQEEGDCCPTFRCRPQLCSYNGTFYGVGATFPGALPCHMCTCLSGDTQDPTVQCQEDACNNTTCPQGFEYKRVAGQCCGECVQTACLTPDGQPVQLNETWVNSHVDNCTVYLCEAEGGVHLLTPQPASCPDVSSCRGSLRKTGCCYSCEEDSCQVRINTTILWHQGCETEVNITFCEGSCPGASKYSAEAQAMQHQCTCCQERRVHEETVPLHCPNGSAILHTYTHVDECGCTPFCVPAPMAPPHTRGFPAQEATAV
Description: MST; pH 7.4; 2.5 nM RED-NHS labelled NT5B, CT5B serially diluted 1:1 (starting concentration 6 μM); 25 mM HEPES, 150 mM NaCl, 0.05% Tween 20, with 5 mM CaCl2 or 5 mM EGTA; room temperature; KD model. The conditions noted are these: both partners purified.

Assay [5] deals with T1, MUC5B C-terminal construct consisting …. Description: SPR; single cycle kinetics, pH 7.4; CT5B immobilised on CM5 chip, NT5B 0, 5, 10, 15, 20 and 40 nM, HBS with 5 mM CaCl2 and 0.05% Tween 20; 1:1 Langmuir model. The conditions noted are these: both partners purified.
The target is the same in assay [6]. Description: SPR; single cycle kinetics, pH 6; CT5B immobilised on CM5 chip, NT5B 0, 5, 10, 15, 20 and 40 nM, HBS with 5 mM CaCl2 and 0.05% Tween 20; 1:1 Langmuir model. As to conditions: both partners purified. On the technique in general: In SPR one partner is held on a chip, and binding of the other changes the refractive index at the surface.
Assay [7] has the same target. In words: MST; pH 6; 2.5 nM RED-NHS labelled NT5B, CT5B serially diluted 1:1 (starting concentration 6 μM); 25 mM HEPES, 150 mM NaCl, 0.05% Tween 20, with 5 mM CaCl2 or 5 mM EGTA; room temperature; KD model. As to conditions: both partners purified.

For “MUC5B C-terminal construct consisting of D4-B-C-CK (CT5B) (from UniProt Q9HC84 4955-5762) (domain or fragment)”, the stoichiometry N in assay [1], in assay [2] and in assay [3] was 2 each time.

B1: MUC5B N-terminal construct consisting of D1-D2-D′-D3 (NT5B) (domain or fragment)
chain: QGPVEPSWENAGHTMDGGAPTSSPTRRVSFVPPVTVFPSLSPLNPAHNGRVCSTWGDFHYKTFDGDVFRFPGLCNYVFSEHCRAAYEDFNVQLRRGLVGSRPVVTRVVIKAQGLVLEASNGSVLINGQREELPYSRTGLLVEQSGDYIKVSIRLVLTFLWNGEDSALLELDPKYANQTCGLCGDFNGLPAFNEFYAHNARLTPLQFGNLQKLDGPTEQCPDPLPLPAGNCTDEEGICHRTLLGPAFAECHALVDSTAYLAACAQDLCRCPTCPCATFVEYSRQCAHAGGQPRNWRCPELCPRTCPLNMQHQECGSPCTDTCSNPQRAQLCEDHCVDGCFCPPGTVLDDITHSGCLPLGQCPCTHGGRTYSPGTSFNTTCSSCTCSGGLWQCQDLPCPGTCSVQGGAHISTYDEKLYDLHGDCSYVLSKKCADSSFTVLAELRKCGLTDNENCLKAVTLSLDGGDTAIRVQADGGVFLNSIYTQLPLSAANITLFTPSSFFIVVQTGLGLQLLVQLVPLMQVFVRLDPAHQGQMCGLCGNFNQNQADDFTALSGVVEATGAAFANTWKAQAACANARNSFEDPCSLSVENENYARHWCSRLTDPNSAFSRCHSIINPKPFHSNCMFDTCNCERSEDCLCAALSSYVHACAAKGVQLSDWRDGVCTKYMQNCPKSQRYAYVVDACQPTCRGLSEADVTCSVSFVPVDGCTCPAGTFLNDAGACVPAQECPCYAHGTVLAPGEVVHDEGAVCSCTGGKLSCLGASLQKSTGCAAPMVYLDCSNSSAGTPGAECLRSCHTLDVGCFSTHCVSGCVCPPGLVSDGSGGCIAEEDCPCVHNEATYKPGETIRVDCNTCTCRNRRWECSHRLCLGTCVAYGDGHFITFDGDRYSFEGSCEYILAQDYCGDNTTHGTFRIVTENIPCGTTGTTCSKAIKLFVESYELILQEGTFKAVARGPGGDPPYKIRYMGIFLVIETHGMAVSWDRKTSVFIRLHQDYKGRVCGLCGNFDDNAINDFATRSRSVVGDALEFGNSWKLSPSCPDALAPKDPCTANPFRKSWAQKQCSILHGPTFAACRSQVDSTKYYEACVNDACACDSGGDCECFCTAVAAYAQACHDAGLCVSWRTPDTCPLFCDFYNPHGGCEWHYQPCGAPCLKTCRNPSGHCLVDLPGLEGCYPKCPPSQPFFNEDQMKCVAQCGCYDKDGNYYDVGARVPTAENCQSCNCTPSGIQCA
modifications: RED-NHS (amine reactive) fluorescent dye, in the MST experiments only
Take B1: the Kd (commonly the constant that tells how readily two partners part at equilibrium) was 7.4 ± 1.5 nM in assay [4], approximately 3 nM in assay [5], approximately 1 nM in assay [6] and 3 ± 1.4 nM in assay [7]. In addition, the “binding response, fold lower than at pH 6” value in assay [5] amounted to 5 fold.
